Assay results published in paper PMC12554172, “Systematic analysis of the RGS2 degron reveals characteristics of substrate recognition by the F-box protein FBXO44” (The Journal of Biological Chemistry, 2025).
Positions count from the first letter of the chain named. Names and notes keep the numbering of the source. “Also recorded” adds a separate entry of the source.

Legend:
[1] = tested on: RGS2-HA; assay: Coimmunoprecipitation of FLAG-FBXO44 mutant with RGS2-HA; type: cell-based; settings: HEK-293T cells, HA tag IP, normalized to input, % of WT, three independent experiments
Procedure: (§1) Figure 6 Point mutations disrupt the RGS2–FBXO44 association. Co-IP was performed in HEK-293T cells transiently transfected with RGS2-HA and FLAG-FBXO44 (WT and mutants as indicated). […] Representative blot and quantification of four independent experiments. […] Levels of each protein were normalized to input and expressed as % of WT. Representative blot and quantification of three independent experiments. ∗p < 0.05; ∗∗∗∗p < 0.0001 using Student's unpaired t test. Co-IP, coimmunoprecipitation; FBXO44, F-box only protein 44; RGS2, regulator of G protein signaling 2.
(§2) Cells were maintained in a humidified incubator at 37 °C with 5% CO2. HEK-293T cells were obtained from the American Type Culture Collection (ATCC; CRL-1573). The American Type Culture Collection cell lines are subjected to comprehensive and repeated authentication and contamination checks, ensuring confirmation of cell line identity and ensuring that it is free of contamination prior to supplying it to users. Cells underwent periodical (every 6 months) mycoplasma testing to ensure cell lines are not compromised. Cells were cultured in Dulbecco's modified Eagle's medium (Gibco, catalog no.: 11995) and supplemented with 10% fetal bovine serum (Gibco, catalog no.: 16000). Cells were transfected with DNA plasmids using Lipofectamine 3000 (Invitrogen) under reduced serum conditions in Opti-MEM (Gibco, catalog no.: 31985). […]

[2] = tested on: FBXO44; settings: ref [24]; cited from earlier work
Excerpt: However, evidence of a direct interaction between RGS2 and FBXO44 has, until now, not yet been established. Thus, we first aimed to verify that purified FBXO44 would bind the degron sequence in vitro. […] This also c ...

[3] = tested on: HEK-293T cells; assay: Cycloheximide (CHX) chase assay; type: cell-based, human; settings: for RGS2 protein half-life (t1/2): CHX 50 μM, Western blot, three independent experiments
Procedure: HEK-293T cells in 12-well plates, transiently transfected with either RGS2^WT or RGS2^C13S, were treated with CHX (50 μM) at indicated time points. Cells were harvested as described later and subjected to SDS-PAGE and Western blot.
(§3) Cells were harvested on ice in lysis buffer containing protease inhibitors (50 mM Tris–HCl [pH 7.4], 5 mM NaCl, 0.5 mM EDTA, 1% Triton X-100, 10% cOmplete Protease Inhibitor Cocktail EDTA-free). Lysates were bath sonicated for 10 min at 4 °C, centrifuged at 6000g for 3 min, and the supernatant was used for SDS-PAGE and immunoblotting. Total protein concentration was determined using the Pierce BCA Protein Assay Kit. Samples were diluted to 1 μg/μl in protein sample loading buffer (Li-Cor Biosciences).
(§4) Equal amounts of protein in each lane were resolved on a 12% SDS-PAGE gel for 1 h at 160 V. Samples were transferred to an Immobilon-FL PVDF membrane (Millipore) and subjected to Western immunoblot analysis using Li-Cor blocking buffer for both blocking and antibody diluents. Membranes were blocked for 1 h, then incubated for 2 h in primary antibodies as described under “Antibodies,” and finally incubated for 1 h with IRDye secondary antibodies directed at the species of the primary antibody. Following each antibody incubation, membranes were washed four times in PBS with 0.1% Tween-20. Membranes were imaged using an Azure600 imaging system (Azure Biosystems).

[4] = tested on: HEK-293T cells; assay: RGS2 protein levels, baseline and with proteasome inhibitor MG-132; type: cell-based, human; settings: for change of RGS2 protein levels with MG-132 / change of RGS2 protein levels with MG-132 (Fig. S4): MG-132 10 μM, 4 h
Excerpt: Representative Western blot and quantification of three independent experiments. […] Representative Western blot and quantification of three independent experiments. Representative Western blot (D), quantification of knockdown efficiency (E), and effects on RGS protein levels (F) when FBXO44 is knocked down using siRNA. […] Result of three independent experiments. ∗p < 0.05; ∗∗p < 0.01; ∗∗∗p < 0.001 using two-way ANOVA followed by Tukey's post hoc test for pairwise comparisons (C, E, and F). FBXO44, F-box only protein 44; HEK-293T, human embryonic kidney-293T cell line; RGS2, regulator of G protein signaling 2.
as §3, §4
Figure S4. Effect of RGS2 mutations on protein stability. Representative western blot and quantification of five or six independent experiments (varies by mutation). The proteasome inhibitor MG-132 (10 μM, 4 h) […]
P15R were predicted to destabilize RGS2, due to increased binding to FBXO44 in the peptide microarray. […]
significant. *P<0.05; ***P<0.001 using two-way ANOVA followed by Tukey’s post hoc test for pairwise

[5] = tested on: FBXO44; assay: siRNA-mediated FBXO44 knockdown, Western blot; type: cell-based, human; settings: HEK-293T cells; for RGS2 protein levels upon FBXO44 knockdown: FBXO44 siRNA, Fig. 7, D and F, three independent experiments
Procedure: Using a pool of 4 siRNA oligos (siGENOME SMART Pools; Dharmacon/Revvity), we achieved ∼70% reduction in endogenous FBXO44 protein levels in HEK-293T cells (Fig. 7, D and E).
Cells were maintained in a humidified incubator at 37 °C with 5% CO2. HEK-293T cells were obtained from the American Type Culture Collection (ATCC; CRL-1573). The American Type Culture Collection cell lines are subjected to comprehensive and repeated authentication and contamination checks, ensuring confirmation of cell line identity and ensuring that it is free of contamination prior to supplying it to users. Cells underwent periodical (every 6 months) mycoplasma testing to ensure cell lines are not compromised. Cells were cultured in Dulbecco's modified Eagle's medium (Gibco, catalog no.: 11995) and supplemented with 10% fetal bovine serum (Gibco, catalog no.: 16000). Cells were transfected with DNA plasmids using Lipofectamine 3000 (Invitrogen) under reduced serum conditions in Opti-MEM (Gibco, catalog no.: 31985). Media were changed to Dulbecco's modified Eagle's medium supplemented with 0.5% fetal bovine serum after 4 to 6 h, and cells were harvested for experiments 24 h after transfection. siRNA transfections were performed under reduced serum conditions in Opti-MEM 24 h prior to DNA transfections at 40% to 60% confluency. Cells were transfected with siGENOME SMART-POOL siRNA (FBXO44, M-019201-01-0005; Nontargeting, D-001206-13-05) from Dharmacon (Revvity) using Lipofectamine RNAiMAX (Invitrogen). Experiments were performed 72 h after transfection.
as §3, with “Biosciences). […]” for “Biosciences).”

[6] = tested on: FLAG-FBXO44; assay: Coimmunoprecipitation of RGS2-HA mutant with FLAG-FBXO44; type: cell-based; settings: HEK-293T cells, HA tag IP, normalized to input, % of WT; four independent experiments
Procedure: as §1, §2

[7] = Fig. 7, B and C, three independent experiments
[8] = Fig. S4, five or six independent experiments

B1: FLAG-FBXO44^Y234A: FLAG-tagged FBXO44 with Y234A mutation (protein)
chain: MAVGNINELPENILLELFTHVPARQLLLNCRLVCSLWRDLIDLVTLWKRKCLREGFITEDWDQPVADWKIFYFLRSLHRNLLHNPCAEEGFEFWSLDVNGGDEWKVEDLSRDQRKEFPNDQVKKYFVTSYYTCLKSQVVDLKAEGYWEELMDTTRPDIEVKDWFAARPDCGSKYQLCVQLLSSAHAPLGTFQPDPATIQQKSDAKWREVSHTFSNYPPGVRYIWFQHGGVDTHAWAGWYGPRVTNSSITIGPPLP
modifications: left off: FLAG, end not stated, kept
notes: FLAG-tagged FBXO44 with Y234A mutation
**Q.** For B1, which “association with RGS2-HA (co-IP)” value [1] is on record?
**A.** The value was “associates significantly less”.

**Q.** What about the “association with RGS2-HA (co-IP)” value ([1]; listed as FBXO44^Y234A) of the same molecule?
**A.** The value was “significantly reduced association”.

B2: RGS4: closely related RGS4, subject to proteasomal degradation by a different pathway (protein, UniProt P49798 1-205, looked up)
Regulator of G-protein …: MCKGLAGLPASCLRSAKDMKHRLGFLLQKSDSCEHNSSHNKKDKVVICQRVSQEEVKKWAESLENLISHECGLAAFKAFLKSEYSEENIDFWISCEEYKKIKSPSKLSPKAKKIYNEFISVQATKEVNLDSCTREETSRNMLEPTITCFDEAQKKIFNLMEKDSYRRFLKSRFYLDLVNPSSCGAEKQKGAKSSADCASLVPQCA
**Q.** For B2, which “co-IP with FBXO44” value [2] is on record?
**A.** Its value is “does not coimmunoprecipitate with FBXO44”.

B3: RGS2^WT: full-length wild-type RGS2 expressed in HEK-293T cells (protein)
chain: MQSAMFLAVQHDCRPMDKSAGSGHKSEEKREKMKRTLLKDWKTRLSYFLQNSSTPGKPKTGKKSKQQAFIKPSPEEAQLWSEAFDELLASKYGLAAFRAFLKSEFCEENIEFWLACEDFKKTKSPQKLSSKARKIYTDFIEKEAPKEINIDFQTKTLIAQNIQEATSGCFTTAQKRVYSLMENNSYPRFLESEFYQDLCKKPQITTEPHAT
modifications: left off: HA, end not stated, kept
notes: full-length wild-type RGS2 expressed in HEK-293T cells
**Q.** With B3 as the molecule, how does the “RGS2 protein half-life (t1/2)” value ([3]; transfected HEK-293T) read?
**A.** Its value is 19.5 min.

**Q.** And the “change of RGS2 protein levels with MG-132” value [4, 7]?
**A.** The value was “significantly enhanced”.

**Q.** What about the “change of RGS2 protein levels with MG-132 (Fig. S4)” value [4, 8] of the same molecule?
**A.** Its value is “significantly increases”.

**Q.** And the “RGS2 protein levels upon FBXO44 knockdown” value [5]?
**A.** Its value is “significantly increases; also recorded: significant increase”.

B4: RGS2^D12R: full-length RGS2 with D12R mutation (protein, UniProt P41220 1-211, looked up, variant D12R)
chain: B3 chain with D12R
modifications: full-length
notes: full-length RGS2 with D12R mutation
**Q.** What does the source list for B4?
**A.** change of RGS2 protein levels with MG-132 (Fig. S4) [4, 8]: none of these mutations resulted in significant changes in basal expression or response to MG-132; basal RGS2 protein expression versus RGS2^WT (Fig. S4) ([4]; no MG-132, Fig. S4, five or six independent experiments): trend toward lower basal expression

B5: RGS2^C13S: full-length RGS2 with C13S mutation (protein)
chain: B3 chain with C13S
modifications: left off: HA, end not stated, kept
notes: full-length RGS2 with C13S mutation
**Q.** Which “extension of RGS2 protein half-life versus RGS2^WT” value ([3]; CHX chase, RGS2^C13S versus RGS2^WT) does the source give for B5 here?
**A.** The value was “almost twofold; also recorded: almost double that of RGS2^WT”.

**Q.** What about the “RGS2 protein stability versus RGS2^WT (in words)” value ([3]; CHX chase, transfected HEK-293T) of the same molecule?
**A.** Its value is “significantly stabilized”.

**Q.** And the “RGS2 protein half-life (t1/2)” value ([3]; transfected HEK-293T)?
**A.** Its value is 33.5 min.

**Q.** And the “change of RGS2 protein levels with MG-132” value [4, 7]?
**A.** The value was “not significantly changed; also recorded: does not significantly change”.

**Q.** And the “basal RGS2 protein level versus RGS2^WT” value ([4]; no MG-132, Fig. 7, B and C, three independent experiments)?
**A.** The value was “increased protein levels at baseline; however, this increase was not statistically significant; also recorded: upward trend in basal expression”.

**Q.** What about the “RGS2 protein levels upon FBXO44 knockdown” value [5] of the same molecule?
**A.** Its value is “significantly increases RGS2^WT but not RGS2^C13S protein levels; also recorded: significant increase in RGS2^WT but not RGS2^C13S protein levels”.

**Q.** What about the “RGS2^C13S expression level versus RGS2^WT in siRNA experiments” value ([5]; Fig. 7F) of the same molecule?
**A.** The value was “significantly higher levels than RGS2^WT”.

B6: RGS2^C13S-HA: HA-tagged RGS2 with C13S mutation (protein)
chain: B3 chain with C13S
modifications: left off: HA, end not stated, kept
notes: HA-tagged RGS2 with C13S mutation
**Q.** For B6, which “association with FLAG-FBXO44 (co-IP)” value [6] is on record?
**A.** Its value is “significantly reduced association; also recorded: associates significantly less”.
